Laboratory results published in US20220177587A1, “METHODS AND USES OF VARIANT CD80 FUSION PROTEINS AND RELATED CONSTRUCTS” (Alpine Immune Sciences, Inc., priority 2018, published 2022).
Where “and” joins values, the source holds several entries; their conditions need not be identical. Identical values can stand only once.

B1: H18L, R29D, Y31L, Q33H, K36G, M38I, T41A, M43R, M47T, L70Q, E81V, L85R, K89N, A91T, F92P, K93V, R94L, I118V, T120S, T130A, K169E (protein)
chain: VIHVTKEVKEVATLSCGLNVSVEELAQTDILWHKEGKIVLAMRSGDTNIWPEYKNRTIFDITNNLSIVIQALRPSDEGTYVCVVRKYENDTPVLEHLAEVTLSVKADFPTPSISDFEVPSSNIRRIICSASGGFPEPHLSWLENGEELNAINTTVSQDPETELYAVSSELDFNMTTNHSFMCLIKYGHLRVNQTFNWNTTKQEHFPDN
B2: R29D, Y31L, Q33H, K36G, M38I, T41A, M43R, M47T, L70Q, E81V, L85R, K89N, A91T, F92P, K93V, R94L, I118V, T120S, I127T, T130A (protein)
chain: VIHVTKEVKEVATLSCGHNVSVEELAQTDILWHKEGKIVLAMRSGDTNIWPEYKNRTIFDITNNLSIVIQALRPSDEGTYVCVVRKYENDTPVLEHLAEVTLSVKADFPTPSISDFEVPSSNIRRITCSASGGFPEPHLSWLENGEELNAINTTVSQDPETELYAVSSKLDFNMTTNHSFMCLIKYGHLRVNQTFNWNTTKQEHFPDN
B3: R29D, Y31L, Q33H, K36G, M38I, T41A, M43R, M47T, I61N, E81V, L85R, K89N, A91T, F92P, K93V, R94F, V104A, I118V, T120S, I126V, T130A (protein)
chain: VIHVTKEVKEVATLSCGHNVSVEELAQTDILWHKEGKIVLAMRSGDTNIWPEYKNRTIFDNTNNLSIVILALRPSDEGTYVCVVRKYENDTPVFEHLAEVTLSAKADFPTPSISDFEVPSSNIRRVICSASGGFPEPHLSWLENGEELNAINTTVSQDPETELYAVSSKLDFNMTTNHSFMCLIKYGHLRVNQTFNWNTTKQEHFPDN
B4: R29D, Y31L, Q33H, K36G, M38I, T41A, M43R, M47T, L70Q, E81V, L85R, K89N, A91T, F92P, K93I, R94L, L97R, T130A, L148S (protein)
chain: VIHVTKEVKEVATLSCGHNVSVEELAQTDILWHKEGKIVLAMRSGDTNIWPEYKNRTIFDITNNLSIVIQALRPSDEGTYVCVVRKYENDTPILEHRAEVTLSVKADFPTPSISDFEIPTSNIRRIICSASGGFPEPHLSWLENGEESNAINTTVSQDPETELYAVSSKLDFNMTTNHSFMCLIKYGHLRVNQTFNWNTTKQEHFPDN
B5: R29D, Y31L, Q33H, K36G, M38I, T41A, M43R, M47T, L70Q, E81V, L85R, K89N, A91T, F92P, K93I, R94L, L97R, T130A (protein)
chain: VIHVTKEVKEVATLSCGHNVSVEELAQTDILWHKEGKIVLAMRSGDTNIWPEYKNRTIFDITNNLSIVIQALRPSDEGTYVCVVRKYENDTPILEHRAEVTLSVKADFPTPSISDFEIPTSNIRRIICSASGGFPEPHLSWLENGEELNAINTTVSQDPETELYAVSSKLDFNMTTNHSFMCLIKYGHLRVNQTFNWNTTKQEHFPDN
B6: C16S, H18L, R29D, Y31L, Q33H, K36G, M38I, T41A, M43R, M47T, E81V, L85R, K89N, A91T, F92P, K93V, R94L, T110A, I118V, H188D (protein)
chain: VIHVTKEVKEVATLSSGLNVSVEELAQTDILWHKEGKIVLAMRSGDTNIWPEYKNRTIFDITNNLSIVILALRPSDEGTYVCVVRKYENDTPVLEHLAEVTLSVKADFPAPSISDFEVPTSNIRRIICSTSGGFPEPHLSWLENGEELNAINTTVSQDPETELYAVSSKLDFNMTTNHSFMCLIKYGDLRVNQTFNWNTTKQEHFPDN
B7: R29D, Y31L, Q33H, K36G, M38I, T41A, M43R, M47T, T62S, E81V, L85R, K89N, A91T, F92P, K93V, R94L, I118V, T120S, T130A, K169E, T175A (protein)
chain: VIHVTKEVKEVATLSCGHNVSVEELAQTDILWHKEGKIVLAMRSGDTNIWPEYKNRTIFDISNNLSIVILALRPSDEGTYVCVVRKYENDTPVLEHLAEVTLSVKADFPTPSISDFEVPSSNIRRIICSASGGFPEPHLSWLENGEELNAINTTVSQDPETELYAVSSELDFNMATNHSFMCLIKYGHLRVNQTFNWNTTKQEHFPDN
B8: H18L, R29D, Y31L, Q33H, K36G, M38I, T41A, M43R, M47T, E81V, L85R, K89N, A91T, F92P, K93V, R94L, I118V, T120S, I127T, T130A, L142S, H188D (protein)
chain: VIHVTKEVKEVATLSCGLNVSVEELAQTDILWHKEGKIVLAMRSGDTNIWPEYKNRTIFDITNNLSIVILALRPSDEGTYVCVVRKYENDTPVLEHLAEVTLSVKADFPTPSISDFEVPSSNIRRITCSASGGFPEPHLSWSENGEELNAINTTVSQDPETELYAVSSKLDFNMTTNHSFMCLIKYGDLRVNQTFNWNTTKQEHFPDN
B9: R29D, Y31L, Q33H, K36G, M38I, T41A, M43R, M47T, E81V, L85R, K89N, A91T, F92P, K93V, R94F, I118V, T120S, T130A (protein)
chain: VIHVTKEVKEVATLSCGHNVSVEELAQTDILWHKEGKIVLAMRSGDTNIWPEYKNRTIFDITNNLSIVILALRPSDEGTYVCVVRKYENDTPVFEHLAEVTLSVKADFPTPSISDFEVPSSNIRRIICSASGGFPEPHLSWLENGEELNAINTTVSQDPETELYAVSSKLDFNMTTNHSFMCLIKYGHLRVNQTFNWNTTKQEHFPDN
B10: H18L, R29D, Y31L, Q33H, K36G, M38I, T41A, M43R, M47T, E81V, L85R, K89N, A91T, F92P, K93V, R94L, F116S, T130A, H188D (protein)
chain: VIHVTKEVKEVATLSCGLNVSVEELAQTDILWHKEGKIVLAMRSGDTNIWPEYKNRTIFDITNNLSIVILALRPSDEGTYVCVVRKYENDTPVLEHLAEVTLSVKADFPTPSISDSEIPTSNIRRIICSASGGFPEPHLSWLENGEELNAINTTVSQDPETELYAVSSKLDFNMTTNHSFMCLIKYGDLRVNQTFNWNTTKQEHFPDN
B11: Y53C, L85R, K89N, A91T, F92P, K93V, R94L, I118V, T120S, I127T, T130A, K169E (protein)
chain: VIHVTKEVKEVATLSCGHNVSVEELAQTRIYWQKEKKMVLTMMSGDMNIWPECKNRTIFDITNNLSIVILALRPSDEGTYECVVRKYENDTPVLEHLAEVTLSVKADFPTPSISDFEVPSSNIRRITCSASGGFPEPHLSWLENGEELNAINTTVSQDPETELYAVSSELDFNMTTNHSFMCLIKYGHLRVNQTFNWNTTKQEHFPDN
B12: T62S, E81V, L85R, K89N, A91T, F92P, K93V, R94L, I118V, T120S, T130A, K169E (protein)
chain: VIHVTKEVKEVATLSCGHNVSVEELAQTRIYWQKEKKMVLTMMSGDMNIWPEYKNRTIFDISNNLSIVILALRPSDEGTYVCVVRKYENDTPVLEHLAEVTLSVKADFPTPSISDFEVPSSNIRRIICSASGGFPEPHLSWLENGEELNAINTTVSQDPETELYAVSSELDFNMTTNHSFMCLIKYGHLRVNQTFNWNTTKQEHFPDN
B13: L70Q, A91G, I118V, T120S, T130A, K169E (protein)
chain: VIHVTKEVKEVATLSCGHNVSVEELAQTRIYWQKEKKMVLTMMSGDMNIWPEYKNRTIFDITNNLSIVIQALRPSDEGTYECVVLKYEKDGFKREHLAEVTLSVKADFPTPSISDFEVPSSNIRRIICSASGGFPEPHLSWLENGEELNAINTTVSQDPETELYAVSSELDFNMTTNHSFMCLIKYGHLRVNQTFNWNTTKQEHFPDN
modifications: CD80 v125 ECD
B14: R29D, Y31L, Q33H, K36G, M38I, T41A, M43R, M47T, A91G, I118V, T120S, I127T, T130A, H188D (protein)
chain: VIHVTKEVKEVATLSCGHNVSVEELAQTDILWHKEGKIVLAMRSGDTNIWPEYKNRTIFDITNNLSIVILALRPSDEGTYECVVLKYEKDGFKREHLAEVTLSVKADFPTPSISDFEVPSSNIRRITCSASGGFPEPHLSWLENGEELNAINTTVSQDPETELYAVSSKLDFNMTTNHSFMCLIKYGDLRVNQTFNWNTTKQEHFPDN
B15: R29D, Y31L, Q33H, K36G, M38I, T41A, M43R, M47T, L70Q, D76G, A91G, S103L, I118V, T120S, I127T, T130A (protein)
chain: VIHVTKEVKEVATLSCGHNVSVEELAQTDILWHKEGKIVLAMRSGDTNIWPEYKNRTIFDITNNLSIVIQALRPSGEGTYECVVLKYEKDGFKREHLAEVTLLVKADFPTPSISDFEVPSSNIRRITCSASGGFPEPHLSWLENGEELNAINTTVSQDPETELYAVSSKLDFNMTTNHSFMCLIKYGHLRVNQTFNWNTTKQEHFPDN

Test system: human pan T cells
Test: Anti-CD3 coimmobilization assay, IFN-gamma
Assay type: cell-based
Conditions: Table E34; culture supernatant, 3 days
Description: Costimulatory bioactivity of CD80 fusion variants was determined in anti-CD3 coimmobilization assays. 1 nM or 4 nM mouse anti-human CD3 (OKT3, Biolegends, USA) was diluted in PBS with 1 nM to 80 nM rCD80.Fc variant proteins. This mixture was added to tissue culture treated flat bottom 96-well plates (Corning, USA) overnight to facilitate adherence of the stimulatory proteins to the wells of the plate. The next day, unbound protein was washed off the plates and 100,000 purified human pan T cells (BenTech Bio, US) or human T cell clone BC3 (Astarte Biologics, USA) were added to each well in a final volume of 200 μl of Ex-Vivo 15 media (Lonza, Switzerland). Cells were cultured 3 days before harvesting culture supernatants and measuring human IFN-gamma levels with Duoset ELISA kit (R&D Systems, USA) as described above.

B1 and B3 are within 1.5-fold of each other in “Anti-CD3 IFN-gamma Coimmobilization Assay” value: 232 pg/mL for the first, 288 pg/mL for the second.

First: B4
Second: B5
The “Anti-CD3 IFN-gamma Coimmobilization Assay” value of the first is 2-fold lower: 101 pg/mL for the first, 202 pg/mL for the second.

Going from B6 to B7, the “Anti-CD3 IFN-gamma Coimmobilization Assay” value falls from 247 pg/mL to 114 pg/mL (2.2-fold).

B8 and B9 are within 1.5-fold of each other in “Anti-CD3 IFN-gamma Coimmobilization Assay” value: 143 pg/mL for the first, 111 pg/mL for the second.

First: B10
Second: B11
The “Anti-CD3 IFN-gamma Coimmobilization Assay” value of the first is 1.5-fold higher: 114 pg/mL for the first, 75 pg/mL for the second.

B12 and B13 are within 1.5-fold of each other in “Anti-CD3 IFN-gamma Coimmobilization Assay” value: 107 pg/mL for the first, 115 pg/mL for the second.

Going from B14 to B15, the “Anti-CD3 IFN-gamma Coimmobilization Assay” value rises from 125 pg/mL to 224 pg/mL (1.8-fold).

B2 was tested, and the “Anti-CD3 IFN-gamma Coimmobilization Assay” value was 162 pg/mL and 135 pg/mL.
